Measured values reported in publication PMC3297582, “Spo0A∼P Imposes a Temporal Gate for the Bimodal Expression of Competence in Bacillus subtilis” (PLoS Genetics, 2012).

Biological target: the molecule itself
Assay: SEC; Superdex 200 column; Spo0A after phosphorylation with phosphoramidate; buffer not stated

B1: Spo0A∼P (phosphorylated form of the response-regulator protein Spo0A) (natural protein, Bacillus subtilis, UniProt P06534 1-267, looked up)
chain: MEKIKVCVADDNRELVSLLSEYIEGQEDMEVIGVAYNGQECLSLFKEKDPDVLVLDIIMPHLDGLAVLERLRESDLKKQPNVIMLTAFGQEDVTKKAVDLGASYFILKPFDMENLVGHIRQVSGNASSVTHRAPSSQSSIIRSSQPEPKKKNLDASITSIIHEIGVPAHIKGYLYLREAISMVYNDIELLGSITKVLYPDIAKKFNTTASRVERAIRHAIEVAWSRGNIDSISSLFGYTVSMTKAKPTNSEFIAMVADKLRLEHKAS
modifications: phosphorylated with phosphoramidate (residue not given; fraction phosphorylated uncertain)
notes: Spo0A, response regulator of Bacillus subtilis, full length, phosphorylated in vitro; also called OA∼P; source: purified following a published protocol [41] as modified [42]; phosphorylated with non-radioactive phosphoramidate
stoichiometry N: 2
